Results taken from article PMC10916864 (Molecular Biology of the Cell, 2024).

Target: T1, His-mNeon-tagged EBP50 PDZ1-PDZ2 fragment (human, UniProt O14745-1 1-298)
T1 sequence (looked up): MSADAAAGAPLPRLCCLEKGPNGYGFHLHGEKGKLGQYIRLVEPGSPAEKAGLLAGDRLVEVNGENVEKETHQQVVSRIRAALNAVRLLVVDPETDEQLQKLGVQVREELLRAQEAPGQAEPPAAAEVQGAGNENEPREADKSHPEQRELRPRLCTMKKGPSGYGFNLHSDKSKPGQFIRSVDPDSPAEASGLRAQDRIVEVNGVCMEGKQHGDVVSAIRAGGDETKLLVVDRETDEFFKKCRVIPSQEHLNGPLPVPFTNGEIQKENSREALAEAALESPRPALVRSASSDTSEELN
Assay: pull-down

B1: GST-CDHR5 CD (GST fusion of the cytoplasmic tail of CDHR5) (domain or fragment, human, UniProt Q9HBB8-1 697-845, looked up)
chain: RLKCCCGKAPEPQPQGFDNQAFLPDHKANWAPVPSPTHDPKPAEAPMPAEPAPPGPASPGGAPEPPAAARAGGSPTAVRSILTKERRPEGGYKAVWFGEDIGTEADVVVLNAPTLDVDGASDSGSGDEGEGAGRGGGPYDAPGGDDSYI
Does B1 bind?
Result: binds
